Measured values from PMC8591511, “Flexible open conformation of the AP-3 complex explains its role in cargo recruitment at the Golgi” (The Journal of Biological Chemistry, 2021).

Experiments:
[1] = target: T1, GFP-tagged AP-3 complex (Apl6 tagged C-terminally with mGFP) (S. cerevisiae, UniProt Q08951 1-932; P46682 1-809; P38153 1-483; P47064 1-194); assay: single-molecule TIRF microscopy on polymer-supported membranes; polymer-supported membranes (Golgi mixture with 1 mol% PI4P) with or without Arf1 (10 nM), Sec7ΔC (10 nM) and 400 μM GTPγS, or reconstituted Vam3; GFP-tagged AP-3 (2 nM) labelled with anti-GFP nanobody-Dy647; room temperature; monitored 45 min; details: both partners purified
T1 construct: Apl5, δ-subunit of the yeast AP-3 complex; Apl6, β3-subunit of the yeast AP-3 complex; Apm3, μ3-subunit of the yeast AP-3 complex; Aps3, σ-subunit of the yeast AP-3 complex; also called GFP-AP-3; source: yeast strain with Apl6 fused to GFP, purified; labelled via anti-GFP nanobody carrying DY647 or Alexa Fluor 568; not shown: mGFP, C-terminal, kept; copies: + + +

[2] = target: T1, GFP-tagged AP-3 complex (Apl6 tagged …); assay: single-molecule tracking of cargo mobility (TIRF microscopy); labelled Vam3 in polymer-supported membranes tracked before and after the addition of AP-3; without Arf1 and Sec7; details: both partners purified

T1 sequence (Q08951 whole entry, chain 1 of 4, the tested form may be a part): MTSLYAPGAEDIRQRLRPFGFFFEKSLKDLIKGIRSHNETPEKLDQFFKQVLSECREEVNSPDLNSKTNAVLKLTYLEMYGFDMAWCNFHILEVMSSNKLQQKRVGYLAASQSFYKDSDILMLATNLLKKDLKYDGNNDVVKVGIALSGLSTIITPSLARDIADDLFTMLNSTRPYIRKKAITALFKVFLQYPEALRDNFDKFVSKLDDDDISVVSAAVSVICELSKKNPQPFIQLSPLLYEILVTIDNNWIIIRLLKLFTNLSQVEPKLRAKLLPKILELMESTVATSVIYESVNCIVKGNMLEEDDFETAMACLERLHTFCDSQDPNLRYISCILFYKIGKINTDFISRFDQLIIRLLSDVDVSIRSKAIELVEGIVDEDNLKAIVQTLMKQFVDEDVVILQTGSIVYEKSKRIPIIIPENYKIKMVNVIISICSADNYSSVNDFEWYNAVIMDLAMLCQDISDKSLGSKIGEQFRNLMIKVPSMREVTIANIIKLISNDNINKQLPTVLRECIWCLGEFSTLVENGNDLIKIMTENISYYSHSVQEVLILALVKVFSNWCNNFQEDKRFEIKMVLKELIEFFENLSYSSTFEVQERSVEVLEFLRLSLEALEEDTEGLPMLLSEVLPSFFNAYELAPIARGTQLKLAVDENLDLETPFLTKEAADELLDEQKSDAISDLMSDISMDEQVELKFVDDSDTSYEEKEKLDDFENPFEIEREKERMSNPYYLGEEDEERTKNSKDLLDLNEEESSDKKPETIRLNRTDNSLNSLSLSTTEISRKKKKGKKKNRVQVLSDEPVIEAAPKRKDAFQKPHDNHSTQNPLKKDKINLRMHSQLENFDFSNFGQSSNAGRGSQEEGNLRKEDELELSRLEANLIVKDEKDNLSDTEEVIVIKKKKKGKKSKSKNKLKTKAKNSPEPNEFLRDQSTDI
T1 sequence (P46682 whole entry, chain 2 of 4, the tested form may be a part): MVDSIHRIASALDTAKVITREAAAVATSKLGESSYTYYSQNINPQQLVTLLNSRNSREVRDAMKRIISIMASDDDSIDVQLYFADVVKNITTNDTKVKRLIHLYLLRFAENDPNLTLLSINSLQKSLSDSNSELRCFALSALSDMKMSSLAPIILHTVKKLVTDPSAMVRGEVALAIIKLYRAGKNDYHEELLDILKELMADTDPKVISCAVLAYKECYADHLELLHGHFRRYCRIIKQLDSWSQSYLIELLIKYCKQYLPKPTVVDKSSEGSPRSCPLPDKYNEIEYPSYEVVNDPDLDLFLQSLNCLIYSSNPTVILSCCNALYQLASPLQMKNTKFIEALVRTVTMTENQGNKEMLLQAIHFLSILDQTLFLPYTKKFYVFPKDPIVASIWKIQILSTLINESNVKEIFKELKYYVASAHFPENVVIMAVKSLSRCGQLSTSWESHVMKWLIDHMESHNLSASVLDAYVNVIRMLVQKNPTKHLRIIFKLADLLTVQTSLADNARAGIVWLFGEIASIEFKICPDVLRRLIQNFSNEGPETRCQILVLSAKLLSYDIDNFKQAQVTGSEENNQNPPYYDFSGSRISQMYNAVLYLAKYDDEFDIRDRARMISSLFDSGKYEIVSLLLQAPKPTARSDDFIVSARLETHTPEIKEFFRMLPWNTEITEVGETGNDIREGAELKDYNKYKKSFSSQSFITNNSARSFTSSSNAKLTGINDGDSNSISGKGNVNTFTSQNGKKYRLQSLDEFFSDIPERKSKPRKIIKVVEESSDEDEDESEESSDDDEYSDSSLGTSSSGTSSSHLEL
T1 sequence (P38153 whole entry, chain 3 of 4, the tested form may be a part): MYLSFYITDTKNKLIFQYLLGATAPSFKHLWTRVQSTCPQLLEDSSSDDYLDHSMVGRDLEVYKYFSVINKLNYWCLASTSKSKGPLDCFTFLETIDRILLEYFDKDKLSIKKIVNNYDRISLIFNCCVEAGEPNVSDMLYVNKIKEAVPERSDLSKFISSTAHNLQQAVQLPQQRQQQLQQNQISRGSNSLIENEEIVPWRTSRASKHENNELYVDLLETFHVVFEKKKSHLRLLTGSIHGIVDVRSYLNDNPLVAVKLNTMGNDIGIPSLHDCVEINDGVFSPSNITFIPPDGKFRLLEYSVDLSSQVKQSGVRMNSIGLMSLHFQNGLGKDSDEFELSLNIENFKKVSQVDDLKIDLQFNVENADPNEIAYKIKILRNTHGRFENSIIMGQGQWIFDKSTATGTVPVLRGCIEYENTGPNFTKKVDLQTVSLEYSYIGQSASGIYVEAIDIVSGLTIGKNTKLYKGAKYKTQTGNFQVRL
T1 sequence (P47064 whole entry, chain 4 of 4, the tested form may be a part): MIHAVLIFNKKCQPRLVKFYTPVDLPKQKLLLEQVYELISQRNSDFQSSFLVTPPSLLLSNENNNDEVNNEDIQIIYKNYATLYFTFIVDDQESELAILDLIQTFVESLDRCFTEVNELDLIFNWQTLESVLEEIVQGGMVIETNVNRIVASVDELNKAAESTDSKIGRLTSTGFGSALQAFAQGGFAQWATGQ

| Binder | binding result [1] | binding result [2] |
| --- | --- | --- |
| Vam3 (yeast vacuolar SNARE, AP-3 cargo with dileucine motif) (natural protein, UniProt Q12241 1-283, looked up, Vam3, yeast SNARE; transmembrane domain aa 263–283; source: reconstituted into proteoliposomes or polymer-supported membranes) MSFFDIEAQSSKGNSQQEPQFSTNQKTKELSNLIETFAEQSRVLEKECTKIGSKRDSKELRYKIETELIPNCTSVRDKIESNILIHQNGKLSADFKNLKTKYQSLQQSYNQRKSLFPLKTPISPGTSKERKDIHPRTEAVRQDPESSYISIKVNEQSPLLHNEGQHQLQLQEEQEQQQQGLSQEELDFQTIIHQERSQQIGRIHTAVQEVNAIFHQLGSLVKEQGEQVTTIDENISHLHDNMQNANKQLTRADQHQRDRNKCGKVTLIIIIVVCMVVLLAVLS | binds |  |
| Vam3 labelled with Atto 647N (natural protein, yeast, UniProt Q12241 1-283, looked up, Atto 647N (Maleimide), Vam3, yeast SNARE; also called prelabeled transmembrane cargo; source: reconstituted into polymer-supported membranes) MSFFDIEAQSSKGNSQQEPQFSTNQKTKELSNLIETFAEQSRVLEKECTKIGSKRDSKELRYKIETELIPNCTSVRDKIESNILIHQNGKLSADFKNLKTKYQSLQQSYNQRKSLFPLKTPISPGTSKERKDIHPRTEAVRQDPESSYISIKVNEQSPLLHNEGQHQLQLQEEQEQQQQGLSQEELDFQTIIHQERSQQIGRIHTAVQEVNAIFHQLGSLVKEQGEQVTTIDENISHLHDNMQNANKQLTRADQHQRDRNKCGKVTLIIIIVVCMVVLLAVLS |  | binds |
